Assays:
[1] = molecular target: T1, LILRA3 (human, UniProt Q8N6C8 24-439); assay: SPR, Biacore 8K, mAb captured on anti-human Fc, analyte injected
T1 construct: Bought protein; limits of the part used are marked by bold type not visible here; whole entry named; also called recombinant human LILRA3
Procedure: (§1) SPR was used to determine the specificity of four humanized anti-ILT4 mAbs for binding to LILRB2 and to determine any cross-reactivity with nine other LILRA and LILRB family members. LILR proteins were purchased from Acro Biosystems or R&D Systems, with sequence provided below. The studies were performed with a Biacore 8K instrument using a CM4 sensor chip with a running buffer of HBS-P+, 100 μg/mL BSA. Anti-human Fc specific capture surfaces were prepared using standard amine coupling chemistry. MAb was captured to flow cell 2 with flow cell 1 serving as the reference flow cell. Each of the nine family members and LILRB2 were injected at 100 nM at 30 μL/min for 90 sec with 240 sec of dissociation. […] All sensorgrams were doubled-referenced during processing of the data.

[2] = molecular target: T2, LILRA4 (human, UniProt P59901 24-446); assay: as above
T2 construct: Bought protein; limits of the extracellular domain are marked by bold type not visible here; whole entry named; also called recombinant human LILRA4
Procedure: as §1

[3] = molecular target: T3, LILRA2 (human, UniProt Q8N149 24-449); assay: as above
T3 construct: Bought protein; limits of the extracellular domain are marked by bold type not visible here; whole entry named; also called recombinant human LILRA2
Procedure: as §1

[4] = molecular target: T4, LILRB1 (human, UniProt Q8NHL6 24-461); assay: as above
T4 construct: Bought protein; limits of the extracellular domain are marked by bold type not visible here; whole entry named; also called recombinant human LILRB1; ILT2
Procedure: as §1

[5] = molecular target: T5, LILRA5 (human, UniProt A6NI73 42-268); assay: as above
T5 construct: Bought protein; limits of the extracellular domain are marked by bold type not visible here; whole entry named; also called recombinant human LILRA5
Procedure: as §1

[6] = molecular target: T6, LILRA1 (human, UniProt O75019 17-461); assay: as above
T6 construct: Bought protein; limits of the extracellular domain are marked by bold type not visible here; whole entry named; also called recombinant human LILRA1
Procedure: as §1

[7] = molecular target: T7, LILRB4 (human, UniProt Q8NHJ6 22-259); assay: as above
T7 construct: Bought protein; limits of the extracellular domain are marked by bold type not visible here; whole entry named; also called recombinant human LILRB4; ILT3
Procedure: as §1

[8] = molecular target: T8, LILRB3 (human, UniProt O75022 24-443); assay: as above
T8 construct: Bought protein; limits of the extracellular domain are marked by bold type not visible here; whole entry named; also called recombinant human LILRB3; ILT5
Procedure: as §1

[9] = molecular target: T9, LILRA6 (human, UniProt Q6PI73 24-447); assay: as above
T9 construct: Bought protein; limits of the extracellular domain are marked by bold type not visible here; whole entry named; also called recombinant human LILRA6
Procedure: as §1

[10] = molecular target: T10, human ILT4 expressed on cells (human, UniProt Q8N423 22-597); assay: flow cytometry, blockade of PE-HLA-A tetramer (5 ug/ml) binding to ILT4-CHO cells, Experiment 3 (table title prints HLA-G)
T10 construct: whole, on cells; The same entry is used for endogenous ILT4 of human macrophages; also called CHO-S/ILT4 cells; ILT4-CHO cells

[11] = molecular target: T11, recombinant human ILT4 (LILRB2) (human, UniProt Q8N423 22-460); assay: SPR, Biacore T200, mAb captured on anti-Fc, ILT4 injected, medium resolution, 25 C
T11 construct: Bought protein (Acro Biosystems or R&D Systems); also called ILTR4
Outline: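 Mouse, chimeric or humanized mAbs captured on anti-Fc surfaces (CM4 chip); ILT4 injected at 101 to 0.79 nM, 2-fold series, 90 s association, 1200 s dissociation. Run at 25° C in HBS-P+ pH 7.4 with 100 μg/ml BSA; double-referenced global 1:1 fit with mass-transport term, KD=koff/kon.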

[12] = molecular target: T10, human ILT4 expressed on cells; assay: flow cytometry, AF647-labelled mAb on ILT4-CHO cells
Procedure: AF647-Hz45.01-LALA and AF647-Hz156.03-LALA at various concentrations (0-10 μg/ml) were incubated with ILT4-CHO cells and analyzed by flow cytometry.

[13] = molecular target: T11, recombinant human ILT4 (LILRB2); assay: SPR, high resolution kinetics, triplicate, LALA antibody
[14] = molecular target: T10, human ILT4 expressed on cells; assay: flow cytometry, blockade of PE-HLA-G tetramer binding to ILT4-CHO cells, Experiment 2
[15] = molecular target: T10, human ILT4 expressed on cells; assay: flow cytometry on ILT4-CHO cells, unlabelled mAb titrated; competitor AF647-Hz45.01-LALA
Procedure: Competition binding assays were performed. […] Binding activities were measured by flow cytometry.
Anti-human ILT4 mAbs at various concentrations (0-15 μg/ml) were incubated with ILT4-CHO cells. Cells were washed and stained with AF647-Hz45.01-LALA. Cells were analyzed by flow cytometry.

[16] = molecular target: T10, human ILT4 expressed on cells; assay: cell-based or functional assay

T10 sequence (Q8N423 22-597): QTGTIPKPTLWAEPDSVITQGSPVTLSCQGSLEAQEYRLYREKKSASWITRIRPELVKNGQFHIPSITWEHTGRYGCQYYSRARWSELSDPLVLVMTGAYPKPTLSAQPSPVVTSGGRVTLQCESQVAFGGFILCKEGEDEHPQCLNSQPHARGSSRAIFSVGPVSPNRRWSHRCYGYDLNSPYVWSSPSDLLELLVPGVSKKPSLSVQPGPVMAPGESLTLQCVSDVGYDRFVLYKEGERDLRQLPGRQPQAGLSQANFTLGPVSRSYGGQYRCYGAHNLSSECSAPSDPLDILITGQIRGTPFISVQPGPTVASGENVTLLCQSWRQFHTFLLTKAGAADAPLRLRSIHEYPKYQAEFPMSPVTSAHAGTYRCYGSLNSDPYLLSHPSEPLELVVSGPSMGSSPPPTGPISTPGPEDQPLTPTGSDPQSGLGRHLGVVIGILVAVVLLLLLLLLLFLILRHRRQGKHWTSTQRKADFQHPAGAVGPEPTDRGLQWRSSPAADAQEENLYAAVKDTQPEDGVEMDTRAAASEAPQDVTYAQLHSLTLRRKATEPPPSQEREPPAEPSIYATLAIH
T11 sequence (Q8N423 other isoform, or with tags, fused parts or gaps limits assumed): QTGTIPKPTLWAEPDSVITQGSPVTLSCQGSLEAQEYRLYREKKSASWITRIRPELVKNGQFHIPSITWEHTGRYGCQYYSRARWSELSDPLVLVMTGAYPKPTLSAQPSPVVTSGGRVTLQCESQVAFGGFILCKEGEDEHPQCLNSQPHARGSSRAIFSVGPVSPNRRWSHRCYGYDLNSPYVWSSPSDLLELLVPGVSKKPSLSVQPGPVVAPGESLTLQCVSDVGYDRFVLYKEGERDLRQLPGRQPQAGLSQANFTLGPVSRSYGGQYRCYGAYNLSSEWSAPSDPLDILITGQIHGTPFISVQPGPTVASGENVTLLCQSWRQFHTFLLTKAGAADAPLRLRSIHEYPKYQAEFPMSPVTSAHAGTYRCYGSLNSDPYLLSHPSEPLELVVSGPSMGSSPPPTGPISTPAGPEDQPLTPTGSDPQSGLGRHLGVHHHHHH
T2 sequence (P59901 other isoform, or with tags, fused parts or gaps): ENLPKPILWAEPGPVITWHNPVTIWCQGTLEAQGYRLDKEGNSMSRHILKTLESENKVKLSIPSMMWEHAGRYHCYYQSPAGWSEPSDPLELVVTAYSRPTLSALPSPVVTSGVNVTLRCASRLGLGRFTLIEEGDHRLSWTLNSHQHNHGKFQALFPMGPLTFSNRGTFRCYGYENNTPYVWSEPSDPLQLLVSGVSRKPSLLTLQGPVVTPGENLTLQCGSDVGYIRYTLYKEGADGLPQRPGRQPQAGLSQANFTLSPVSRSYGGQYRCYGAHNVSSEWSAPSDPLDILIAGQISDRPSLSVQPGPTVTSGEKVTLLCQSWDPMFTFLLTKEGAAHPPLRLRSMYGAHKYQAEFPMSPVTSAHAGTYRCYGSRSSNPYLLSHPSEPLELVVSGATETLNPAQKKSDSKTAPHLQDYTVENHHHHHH
T6 sequence (O75019 other isoform, or with tags, fused parts or gaps): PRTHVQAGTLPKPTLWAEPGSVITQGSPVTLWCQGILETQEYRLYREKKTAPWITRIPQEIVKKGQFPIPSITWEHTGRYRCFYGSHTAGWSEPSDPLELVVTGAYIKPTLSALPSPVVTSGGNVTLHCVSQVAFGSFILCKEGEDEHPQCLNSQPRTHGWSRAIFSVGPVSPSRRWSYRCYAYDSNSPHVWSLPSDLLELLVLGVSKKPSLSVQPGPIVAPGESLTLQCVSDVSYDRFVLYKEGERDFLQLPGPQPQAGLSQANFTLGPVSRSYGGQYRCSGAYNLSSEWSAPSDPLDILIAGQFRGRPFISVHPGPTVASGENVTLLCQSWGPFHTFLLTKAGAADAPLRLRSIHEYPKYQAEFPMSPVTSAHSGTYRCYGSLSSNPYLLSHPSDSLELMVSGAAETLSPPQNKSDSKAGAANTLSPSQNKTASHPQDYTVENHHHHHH
T7 sequence (Q8NHJ6 other isoform, or with tags, fused parts or gaps): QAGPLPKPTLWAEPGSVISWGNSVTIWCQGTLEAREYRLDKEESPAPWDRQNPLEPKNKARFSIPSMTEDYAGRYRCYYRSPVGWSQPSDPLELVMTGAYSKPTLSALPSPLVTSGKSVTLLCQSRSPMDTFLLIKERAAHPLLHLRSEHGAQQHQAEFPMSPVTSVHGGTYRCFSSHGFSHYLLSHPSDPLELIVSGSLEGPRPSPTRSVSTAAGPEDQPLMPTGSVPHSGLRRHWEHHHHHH
T4 sequence (Q8NHL6 other isoform, or with tags, fused parts or gaps): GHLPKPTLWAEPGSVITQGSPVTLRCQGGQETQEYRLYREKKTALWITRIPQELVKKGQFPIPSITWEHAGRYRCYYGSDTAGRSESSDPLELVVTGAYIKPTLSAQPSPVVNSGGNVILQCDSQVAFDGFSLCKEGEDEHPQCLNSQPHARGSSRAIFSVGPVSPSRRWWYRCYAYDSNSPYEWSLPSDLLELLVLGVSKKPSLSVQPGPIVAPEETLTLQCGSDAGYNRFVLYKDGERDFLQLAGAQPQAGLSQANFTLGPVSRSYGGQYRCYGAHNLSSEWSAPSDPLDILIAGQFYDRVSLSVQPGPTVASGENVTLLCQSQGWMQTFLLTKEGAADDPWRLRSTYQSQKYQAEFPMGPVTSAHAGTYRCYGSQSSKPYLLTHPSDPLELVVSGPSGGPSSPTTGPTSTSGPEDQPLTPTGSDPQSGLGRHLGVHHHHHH
T1 sequence (Q8N6C8 24-439 A105V limits assumed): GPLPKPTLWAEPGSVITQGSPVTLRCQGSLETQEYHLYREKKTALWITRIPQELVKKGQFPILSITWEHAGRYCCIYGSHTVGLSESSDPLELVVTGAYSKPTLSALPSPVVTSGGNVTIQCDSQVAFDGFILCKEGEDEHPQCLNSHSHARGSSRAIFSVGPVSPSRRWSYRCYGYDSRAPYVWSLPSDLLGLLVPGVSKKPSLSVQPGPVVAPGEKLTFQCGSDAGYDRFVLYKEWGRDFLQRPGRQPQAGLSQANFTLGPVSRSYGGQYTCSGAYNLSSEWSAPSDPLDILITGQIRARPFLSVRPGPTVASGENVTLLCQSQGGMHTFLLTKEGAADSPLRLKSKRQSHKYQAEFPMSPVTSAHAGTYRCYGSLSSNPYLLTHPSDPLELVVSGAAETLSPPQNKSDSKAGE
T5 sequence (A6NI73 other isoform, or with tags, fused parts or gaps): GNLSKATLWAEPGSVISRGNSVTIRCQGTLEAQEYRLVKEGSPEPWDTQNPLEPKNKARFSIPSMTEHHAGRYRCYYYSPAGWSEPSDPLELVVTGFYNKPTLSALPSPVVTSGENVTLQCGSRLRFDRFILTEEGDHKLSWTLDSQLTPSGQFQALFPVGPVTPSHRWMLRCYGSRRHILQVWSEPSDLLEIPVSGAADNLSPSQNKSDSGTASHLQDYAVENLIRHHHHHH
T9 sequence (Q6PI73 other isoform, or with tags, fused parts or gaps): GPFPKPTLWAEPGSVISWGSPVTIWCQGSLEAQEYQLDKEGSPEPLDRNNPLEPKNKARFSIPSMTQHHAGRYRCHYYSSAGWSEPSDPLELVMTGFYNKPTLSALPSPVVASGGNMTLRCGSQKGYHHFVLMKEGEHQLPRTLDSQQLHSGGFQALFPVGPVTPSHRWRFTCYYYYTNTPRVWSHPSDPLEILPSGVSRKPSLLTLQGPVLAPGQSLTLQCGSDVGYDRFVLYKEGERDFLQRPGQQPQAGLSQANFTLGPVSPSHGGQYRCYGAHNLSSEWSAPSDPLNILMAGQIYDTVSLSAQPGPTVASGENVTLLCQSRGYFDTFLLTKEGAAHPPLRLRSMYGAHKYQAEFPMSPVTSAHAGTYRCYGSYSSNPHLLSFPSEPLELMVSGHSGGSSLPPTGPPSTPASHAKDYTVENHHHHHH
T8 sequence (O75022 other isoform, or with tags, fused parts or gaps): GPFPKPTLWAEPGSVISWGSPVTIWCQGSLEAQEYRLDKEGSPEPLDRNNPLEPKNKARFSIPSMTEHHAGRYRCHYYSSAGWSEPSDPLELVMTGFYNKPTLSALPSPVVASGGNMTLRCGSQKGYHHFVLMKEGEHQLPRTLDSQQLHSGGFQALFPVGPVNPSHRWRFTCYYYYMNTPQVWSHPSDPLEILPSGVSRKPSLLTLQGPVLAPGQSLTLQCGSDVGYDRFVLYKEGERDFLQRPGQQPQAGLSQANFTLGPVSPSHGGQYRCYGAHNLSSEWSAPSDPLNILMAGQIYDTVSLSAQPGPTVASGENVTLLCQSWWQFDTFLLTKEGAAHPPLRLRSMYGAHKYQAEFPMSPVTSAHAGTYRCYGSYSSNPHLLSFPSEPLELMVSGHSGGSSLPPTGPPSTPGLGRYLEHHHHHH
T3 sequence (Q8N149 other isoform, or with tags, fused parts or gaps): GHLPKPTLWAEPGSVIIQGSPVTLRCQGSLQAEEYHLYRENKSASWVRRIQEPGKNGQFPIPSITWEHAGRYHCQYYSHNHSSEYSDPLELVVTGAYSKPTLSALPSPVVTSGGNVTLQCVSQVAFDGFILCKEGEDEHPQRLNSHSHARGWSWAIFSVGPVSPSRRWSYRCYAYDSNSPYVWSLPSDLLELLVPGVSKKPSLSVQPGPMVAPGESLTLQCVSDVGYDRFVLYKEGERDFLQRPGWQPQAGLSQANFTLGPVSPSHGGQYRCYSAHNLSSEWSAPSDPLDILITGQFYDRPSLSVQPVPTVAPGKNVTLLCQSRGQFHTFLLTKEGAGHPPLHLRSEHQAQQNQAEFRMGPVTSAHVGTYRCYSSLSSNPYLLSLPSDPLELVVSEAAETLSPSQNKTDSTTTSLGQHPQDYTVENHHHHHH

B1: Hz45.01-LALA (antibody, human IgG1, kappa, L234A L235A, V domains shown)
VH: QVQLVQSGAEVKKPGASVKVSCKASGYTFTDYYMNWVRQAPGQRLEWIGDINPNNGGTSYNQKFKGRATITVDTSASTAYMELSSLRSEDTAVYYCARGGAELTGTYWYFDVWGQGTTVTVSS
VL: DIQMTQSPSSLSASVGDRVTITCRASENIYSNLAWYQQKPGKAPKVLVYGATNLADGVPSRFSGSGSGTEYTLTISSLQPEDFATYYCQHFWDSPFTFGGGTKVEIKR
notes: Humanized L45S4, human IgG1 L234A/L235A, kappa; also called Humanized 45_01; Hu IgG 45_01 LALA
Does B1 bind [1]?
Result: no binding (tested: 100 nM)

Does B1 bind [2]?
Result: no binding (tested: 100 nM)

Does B1 bind [3]?
Result: no binding (tested: 100 nM)

Does B1 bind [4]?
Result: no binding (tested: 100 nM)

Does B1 bind [5]?
Result: no binding (tested: 100 nM)

Does B1 bind [6]?
Result: no binding (tested: 100 nM)

Does B1 bind [7]?
Result: no binding (tested: 100 nM)

Does B1 bind [8]?
Result: no binding (tested: 100 nM)

Does B1 bind [9]?
Result: no binding (tested: 100 nM)

What about the IC50 [10] of the same binder?
The IC50 was 0.109 µg/mL.

And the Kd [11]?
Its Kd is 1270 pM.

What about the koff [11] of the same binder?
The koff was 0.000418 s⁻¹.

What about the kon [11] of the same binder?
The kon was 330000 M⁻¹ s⁻¹.

What about the EC50 [12] of the same binder?
The EC50 was 162 µg/mL.

And the Kd [13]?
Its Kd is 154 pM.

And the koff [13]?
The koff was 0.000531 s⁻¹.

What about the IC50 [14] of the same binder?
The IC50 was 0.119 µg/mL.

And the IC50 [15]?
The IC50 was 0.31 µg/mL.

And the “EC50 value of IL-6 production, donor 4” value [16]?
Its value is 0.00603 µg/mL.

And the “EC50 value of IL-6 production, donor 5” value [16]?
The value was 0.0159 µg/mL.

B2: Hz156.03-LALA (antibody, human IgG1, kappa, L234A L235A, V domains shown)
VH: QVQLVQSGAEVKKPGSSVKVSCKASGYTFTDYYMNWVRQAPGQGLEWIARIYPGVYRTHYNEKFKDRVTLTADKSTSTAYMELSSLRSEDTAVYYCARSGYYGGTYEEDAMDYWGQGTTVTVSS
VL: DIQMTQSPSSLSASVGDRVTITCRASENIYSNLAWYQQKPGKAPKLLVYAATSLADGVPSRFSGSGSGTDYTLTISSLQPEDFATYYCQNFWDTPYTFGQGTKVEIKR
notes: Humanized L156S3, human IgG1 L234A/L235A, kappa
Does B2 bind [1]?
Result: no binding (tested: 100 nM)

Does B2 bind [2]?
Result: no binding (tested: 100 nM)

Does B2 bind [3]?
Result: no binding (tested: 100 nM)

Does B2 bind [4]?
Result: no binding (tested: 100 nM)

Does B2 bind [5]?
Result: no binding (tested: 100 nM)

Does B2 bind [6]?
Result: no binding (tested: 100 nM)

Does B2 bind [7]?
Result: no binding (tested: 100 nM)

Does B2 bind [8]?
Result: no binding (tested: 100 nM)

Does B2 bind [9]?
Result: no binding (tested: 100 nM)

And the IC50 [10]?
The IC50 was 0.164 µg/mL.

What about the kon [11] of the same binder?
Its kon is 497000 M⁻¹ s⁻¹.

And the EC50 [12]?
Its EC50 is 248 µg/mL.

And the Kd [13]?
Its Kd is 5.7 pM.

What about the koff [13] of the same binder?
Its koff is 1.83e-05 s⁻¹.

What about the IC50 [14] of the same binder?
Its IC50 is 0.14 µg/mL.

And the IC50 [15]?
Its IC50 is 0.245 µg/mL.

What about the “EC50 value of IL-6 production, donor 4” value [16] of the same binder?
Its value is 0.0082 µg/mL.

What about the “EC50 value of IL-6 production, donor 5” value [16] of the same binder?
Its value is 0.0213 µg/mL.
